Laboratory results from paper PMC7367873, “Dissecting the sequence determinants for dephosphorylation by the catalytic subunits of phosphatases PP1 and PP2A” (Nature Communications, 2020).

B1: COPA (protein, UniProt P53621 1-1224, looked up)
Coatomer subunit alpha: MLTKFETKSARVKGLSFHPKRPWILTSLHNGVIQLWDYRMCTLIDKFDEHDGPVRGIDFHKQQPLFVSGGDDYKIKVWNYKLRRCLFTLLGHLDYIRTTFFHHEYPWILSASDDQTIRVWNWQSRTCVCVLTGHNHYVMCAQFHPTEDLVVSASLDQTVRVWDISGLRKKNLSPGAVESDVRGITGVDLFGTTDAVVKHVLEGHDRGVNWAAFHPTMPLIVSGADDRQVKIWRMNESKAWEVDTCRGHYNNVSCAVFHPRQELILSNSEDKSIRVWDMSKRTGVQTFRRDHDRFWVLAAHPNLNLFAAGHDGGMIVFKLERERPAYAVHGNMLHYVKDRFLRQLDFNSSKDVAVMQLRSGSKFPVFNMSYNPAENAVLLCTRASNLENSTYDLYTIPKDADSQNPDAPEGKRSSGLTAVWVARNRFAVLDRMHSLLIKNLKNEITKKVQVPNCDEIFYAGTGNLLLRDADSITLFDVQQKRTLASVKISKVKYVIWSADMSHVALLAKHAIVICNRKLDALCNIHENIRVKSGAWDESGVFIYTTSNHIKYAVTTGDHGIIRTLDLPIYVTRVKGNNVYCLDRECRPRVLTIDPTEFKFKLALINRKYDEVLHMVRNAKLVGQSIIAYLQKKGYPEVALHFVKDEKTRFSLALECGNIEIALEAAKALDDKNCWEKLGEVALLQGNHQIVEMCYQRTKNFDKLSFLYLITGNLEKLRKMMKIAEIRKDMSGHYQNALYLGDVSERVRILKNCGQKSLAYLTAATHGLDEEAESLKETFDPEKETIPDIDPNAKLLQPPAPIMPLDTNWPLLTVSKGFFEGTIASKGKGGALAADIDIDTVGTEGWGEDAELQLDEDGFVEATEGLGDDALGKGQEEGGGWDVEEDLELPPELDISPGAAGGAEDGFFVPPTKGTSPTQIWCNNSQLPVDHILAGSFETAMRLLHDQVGVIQFGPYKQLFLQTYARGRTTYQALPCLPSMYGYPNRNWKDAGLKNGVPAVGLKLNDLIQRLQLCYQLTTVGKFEEAVEKFRSILLSVPLLVVDNKQEIAEAQQLITICREYIVGLSVETERKKLPKETLEQQKRICEMAAYFTHSNLQPVHMILVLRTALNLFFKLKNFKTAATFARRLLELGPKPEVAQQTRKILSACEKNPTDAYQLNYDMHNPFDICAASYRPIYRGKPVEKCPLSGACYSPEFKGQICRVTTVTEIGKDVIGLRISPLQFR
B2: HNRNPD (protein, UniProt Q14103 2-355, looked up)
Heterogeneous nuclear …: SEEQFGGDGAAAAATAAVGGSAGEQEGAMVAATQGAAAAAGSGAGTGGGTASGGTEGGSAESEGAKIDASKNEEDEGHSNSSPRHSEAATAQREEWKMFIGGLSWDTTKKDLKDYFSKFGEVVDCTLKLDPITGRSRGFGFVLFKESESVDKVMDQKEHKLNGKVIDPKRAKAMKTKEPVKKIFVGGLSPDTPEEKIREYFGGFGEVESIELPMDNKTNKRRGFCFITFKEEEPVKKIMEKKYHNVGLSKCEIKVAMSKEQYQQQQQWGSRGGFAGRARGRGGGPSQNWNQGYSNYWNQGYGNYGYNSQGYGGYGGYDYTGYNNYYGYGDYSNQQSGYGKVSRRGGHQNSYKPY
B3: PHLDB2 (protein, UniProt Q86SQ0 1-1253, looked up)
Pleckstrin homology-like …: MEEHSYIQKELDLQNGSLEEDSVVHSVENDSQNMMESLSPKKYSSSLRFKANGDYSGSYLTLSQPVPAKRSPSPLGTSVRSSPSLAKIQGSKQFSYDGTDKNIPMKPPTPLLNTTSSLSGYPLGRADFDHYTGRDSERALRLSEKPPYSKYSSRHKSHDNVYSLGGLEGRKASGSLLAMWNGSSLSDAGPPPISRSGAASMPSSPKQARKMSIQDSLALQPKLTRHKELASENINLRTRKYSSSSLSHMGAYSRSLPRLYRATENQLTPLSLPPRNSLGNSKRTKLGEKDLPHSVIDNDNYLNFSSLSSGALPYKTSASEGNPYVSSTLSVPASPRVARKMLLASTSSCASDDFDQASYVGTNPSHSLLAGESDRVFATRRNFSCGSVEFDEADLESLRQASGTPQPALRERKSSISSISGRDDLMDYHRRQREERLREQEMERLERQRLETILSLCAEYTKPDSRLSTGTTVEDVQKINKELEKLQLSDEESVFEEALMSPDTRYRCHRKDSLPDADLASCGSLSQSSASFFTPRSTRNDELLSDLTRTPPPPSSTFPKASSESSYLSILPKTPEGISEEQRSQELAAMEETRIVILNNLEELKQKIKDINDQMDESFRELDMECALLDGEQKSETTELMKEKEILDHLNRKIAELEKNIVGEKTKEKVKLDAEREKLERLQELYSEQKTQLDNCPESMREQLQQQLKRDADLLDVESKHFEDLEFQQLEHESRLDEEKENLTQQLLREVAEYQRNIVSRKEKISALKKQANHIVQQAQREQDHFVKEKNNLIMMLQREKENLCNLEKKYSSLSGGKGFPVNPNTLKEGYISVNEINEPCGNSTNLSPSTQFPADADAVATEPATAVLASQPQSKEHFRSLEERKKQHKEGLYLSDTLPRKKTTSSISPHFSSATMGRSITPKAHLPLGQSNSCGSVLPPSLAAMAKDSESRRMLRGYNHQQMSEGHRQKSEFYNRTASESNVYLNSFHYPDHSYKDQAFDTLSLDSSDSMETSISACSPDNISSASTSNIARIEEMERLLKQAHAEKTRLLESREREMEAKKRALEEEKRRREILEKRLQEETSQRQKLIEKEVKIRERQRAQARPLTRYLPVRKEDFDLRSHVETAGHNIDTCYHVSITEKTCRGFLIKMGGKIKTWKKRWFVFDRNKRTFSYYADKHETKLKGVIYFQAIEEVYYDHLKNANKSPNPLLTFSVKTHDRIYYMVAPSPEAMRIWMDVIVTGAEGYTHFLL
B4: RCN1 (protein, UniProt Q15293 30-331, looked up)
Reticulocalbin-1: KPTVRKERVVRPDSELGERPPEDNQSFQYDHEAFLGKEDSKTFDQLTPDESKERLGKIVDRIDNDGDGFVTTEELKTWIKRVQKRYIFDNVAKVWKDYDRDKDDKISWEEYKQATYGYYLGNPAEFHDSSDHHTFKKMLPRDERRFKAADLNGDLTATREEFTAFLHPEEFEHMKEIVVLETLEDIDKNGDGFVDQDEYIADMFSHEENGPEPDWVLSEREQFNEFRDLNKDGKLDKDEIRHWILPQDYDHAQAEARHLVYESDKNKDEKLTKEEILENWNMFVGSQATNYGEDLTKNHDEL
B5: DHX29 (protein, UniProt Q7Z478 1-1369, looked up)
ATP-dependent RNA helicase …: MGGKNKKHKAPAAAVVRAAVSASRAKSAEAGIAGEAQSKKPVSRPATAAAAAAGSREPRVKQGPKIYSFNSTNDSSGPANLDKSILKVVINNKLEQRIIGVINEHKKQNNDKGMISGRLTAKKLQDLYMALQAFSFKTKDIEDAMTNTLLYGGDLHSALDWLCLNLSDDALPEGFSQEFEEQQPKSRPKFQSPQIQATISPPLQPKTKTYEEDPKSKPKKEEKNMEVNMKEWILRYAEQQNEEEKNENSKSLEEEEKFDPNERYLHLAAKLLDAKEQAATFKLEKNKQGQKEAQEKIRKFQREMETLEDHPVFNPAMKISHQQNERKKPPVATEGESALNFNLFEKSAAATEEEKDKKKEPHDVRNFDYTARSWTGKSPKQFLIDWVRKNLPKSPNPSFEKVPVGRYWKCRVRVIKSEDDVLVVCPTILTEDGMQAQHLGATLALYRLVKGQSVHQLLPPTYRDVWLEWSDAEKKREELNKMETNKPRDLFIAKLLNKLKQQQQQQQQHSENKRENSEDPEESWENLVSDEDFSALSLESANVEDLEPVRNLFRKLQSTPKYQKLLKERQQLPVFKHRDSIVETLKRHRVVVVAGETGSGKSTQVPHFLLEDLLLNEWEASKCNIVCTQPRRISAVSLANRVCDELGCENGPGGRNSLCGYQIRMESRACESTRLLYCTTGVLLRKLQEDGLLSNVSHVIVDEVHERSVQSDFLLIILKEILQKRSDLHLILMSATVDSEKFSTYFTHCPILRISGRSYPVEVFHLEDIIEETGFVLEKDSEYCQKFLEEEEEVTINVTSKAGGIKKYQEYIPVQTGAHADLNPFYQKYSSRTQHAILYMNPHKINLDLILELLAYLDKSPQFRNIEGAVLIFLPGLAHIQQLYDLLSNDRRFYSERYKVIALHSILSTQDQAAAFTLPPPGVRKIVLATNIAETGITIPDVVFVIDTGRTKENKYHESSQMSSLVETFVSKASALQRQGRAGRVRDGFCFRMYTRERFEGFMDYSVPEILRVPLEELCLHIMKCNLGSPEDFLSKALDPPQLQVISNAMNLLRKIGACELNEPKLTPLGQHLAALPVNVKIGKMLIFGAIFGCLDPVATLAAVMTEKSPFTTPIGRKDEADLAKSALAMADSDHLTIYNAYLGWKKARQEGGYRSEITYCRRNFLNRTSLLTLEDVKQELIKLVKAAGFSSSTTSTSWEGNRASQTLSFQEIALLKAVLVAGLYDNVGKIIYTKSVDVTEKLACIVETAQGKAQVHPSSVNRDLQTHGWLLYQEKIRYARVYLRETTLITPFPVLLFGGDIEVQHRERLLSIDGWIYFQAPVKIAVIFKQLRVLIDSVLRKKLENPKMSLENDKILQIITELIKTENN
B6: PABPC4 (protein, UniProt Q13310 1-644, looked up)
Polyadenylate-binding protein …: MNAAASSYPMASLYVGDLHSDVTEAMLYEKFSPAGPVLSIRVCRDMITRRSLGYAYVNFQQPADAERALDTMNFDVIKGKPIRIMWSQRDPSLRKSGVGNVFIKNLDKSIDNKALYDTFSAFGNILSCKVVCDENGSKGYAFVHFETQEAADKAIEKMNGMLLNDRKVFVGRFKSRKEREAELGAKAKEFTNVYIKNFGEEVDDESLKELFSQFGKTLSVKVMRDPNGKSKGFGFVSYEKHEDANKAVEEMNGKEISGKIIFVGRAQKKVERQAELKRKFEQLKQERISRYQGVNLYIKNLDDTIDDEKLRKEFSPFGSITSAKVMLEDGRSKGFGFVCFSSPEEATKAVTEMNGRIVGSKPLYVALAQRKEERKAHLTNQYMQRVAGMRALPANAILNQFQPAAGGYFVPAVPQAQGRPPYYTPNQLAQMRPNPRWQQGGRPQGFQGMPSAIRQSGPRPTLRHLAPTGSECPDRLAMDFGGAGAAQQGLTDSCQSGGVPTAVQNLAPRAAVAAAAPRAVAPYKYASSVRSPHPAIQPLQAPQPAVHVQGQEPLTASMLAAAPPQEQKQMLGERLFPLIQTMHSNLAGKITGMLLEIDNSELLHMLESPESLRSKVDEAVAVLQAHHAKKEAAQKVGAVAAATS
B7: SLC2A1 (protein, UniProt P11166 1-492, looked up)
Solute carrier family 2, …: MEPSSKKLTGRLMLAVGGAVLGSLQFGYNTGVINAPQKVIEEFYNQTWVHRYGESILPTTLTTLWSLSVAIFSVGGMIGSFSVGLFVNRFGRRNSMLMMNLLAFVSAVLMGFSKLGKSFEMLILGRFIIGVYCGLTTGFVPMYVGEVSPTALRGALGTLHQLGIVVGILIAQVFGLDSIMGNKDLWPLLLSIIFIPALLQCIVLPFCPESPRFLLINRNEENRAKSVLKKLRGTADVTHDLQEMKEESRQMMREKKVTILELFRSPAYRQPILIAVVLQLSQQLSGINAVFYYSTSIFEKAGVQQPVYATIGSGIVNTAFTVVSLFVVERAGRRTLHLIGLAGMAGCAILMTIALALLEQLPWMSYLSIVAIFGFVAFFEVGPGPIPWFIVAELFSQGPRPAAIAVAGFSNWTSNFIVGMCFQYVEQLCGPYVFIIFTVLLVLFFIFTYFKVPETKGRTFDEIASGFRQGGASQSDKTPEELFHPLGADSQV

tested on: GFP-14-3-3β; assay: GFP-14-3-3β co-IP with LC-MS/MS, untreated GFP-14-3-3β versus GFP control (14-3-3 interactome); assay type: binding, human; conditions: untreated vs GFP; LFQ intensities; 3 replicates each

| Molecule | Difference (log2), untreated vs GFP |
| --- | --- |
| B1 | -0.09761 log2 |
| B2 | 0.1919 log2 |
| B3 | 1.653 log2 |
| B4 | -0.5528 log2 |
| B5 | 1.239 log2 |
| B6 | 2.4022 log2 |
| B7 | -0.3989 log2 |

tested on: GFP-14-3-3β and its binding proteins; assay: GFP-14-3-3β co-IP with LC-MS/MS label-free quantification, untreated versus PP1c-treated; set-up: species or system human; conditions: PP1 vs untreated; LFQ intensities; 3 replicates each

| Difference (log2), PP1 vs untreated | Molecule |
| --- | --- |
| 0.5643 log2 | B1 |
| 0.5387 log2 | B2 |
| 0.5277 log2 | B3 |
| 0.5407 log2 | B4 |
| 0.5459 log2 | B5 |
| 0.5259 log2 | B6 |
| 0.5451 log2 | B7 |
